# Article PMC6466456
# Read-outs that look alike come from different tables or passages of the source.
# B1: KM4 (ssDNA)
# DNA: CTTACCTCTTTCTCCCACCGCCCCAAACATAATTGGTATACCGCAACACAACGCACAACACACAACAATCAAT
# B2: KM4-FITC (ssDNA)
# DNA: B1 DNA
# modifications: 5' AmMC6
# B3: NS-DNA (ssDNA)
# DNA: CGACATCTTTAACCTAGCCCTTGTCAGTGCTCTATGACAAGGTGTGTAGACGACATCTAACCTAGC
# B4: LINN2 (ssDNA)
# DNA: CCGCTTTATTGTTAATTAAGTTTTATATTTCGCACAACACACAACAATCAATATC
# Tests used:
# [1] = target: T1, EGFR, human recombinant, hIgG1-Fc tag (Sino Biological) (Homo sapiens, UniProt P00533 25-645); experiment: thermofluorimetric analysis
# [2] = target: T1, EGFR, human recombinant, hIgG1-Fc tag …; experiment: flow cytometry, EGFR-coated microspheres
# [3] = target: T1, EGFR, human recombinant, hIgG1-Fc tag …; experiment: thermofluorimetric analysis; remark: listed apart in the source
# [4] = target: T1, EGFR, human recombinant, hIgG1-Fc tag …; experiment: thermofluorimetric analysis; remark: listed apart in the source
binder,measurement,setting,value
B1,Kd,[1],~1 nM
B2,Kd,[2],46 nM
B3,binding result,[3],no binding
B4,binding result,[4],binds
